Measurements taken from the nanobody polyreactivity screen of Harvey et al. (2022).

Assay: yeast display, Sf9 membrane polyspecificity reagent, FACS + sequencing; frameworks hold sequencing errors
Outline: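 After 36–48 hours of galactose induction, yeast (Saccharomyces cerevisiae BJ5465) displaying a synthetic nanobody library were stained at 4 °C for 1 hour with 10% biotinylated, detergent-solubilized Sf9 membrane reagent. Streptavidin microbeads enriched the stained cells before FACS sorting into low and high (top ~1%) gates on anti-HA and streptavidin fluorescence. Each clone's polyreactivity label reflects its gate of origin.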

Sequence	polyreactivity (PSR sort gate)
QVQLGESWACIVQAGGSLRLSCAASGIISYLYAMGLYRHAPGKERELVAVIRTSDAITYYADSVKGRFTISRDTAKNTVYLQMNSLKPEDTAFYYCGGRPRYYLYGYDYWGQGTQVTVSS	high polyreactivity
QVQLVESGGGLVQAGGSLRLSCAASGIIFVSYAMGWYRQAPGKEWELVADISSGGRTYYADSVKGRFTISRDNAKNTVYLPMNSLKPEDTAVYYCAKVKRDLQYPGLPEVLNREYWGQGTQVTVSS	high polyreactivity
QVQLVESGGGLVQAGGSLRLSCAASGSIFPIYAMGRYRQAPGKERELVAAIDSSGGSTYYADSVKGRFTISRDNAKNTVYLQMNSLKPEDTAVYYCAADFGSKSTPYDYWGQGTQVTVSS	low polyreactivity
QVQLVESGGGLVQAGGSLRLSCAASGSILDPNAMGWYRQAPGKERELVASISRGDNTYYADSVKGRFRISRDNAKNTVYLQMNSLKPEDTAVYYCAADYSWVVWHDYWGQGTQVTVSS	low polyreactivity
QVQLVESGGGLVQAGGSLRLSCAASGFIFTTNAMGWYRQAPGKERELVAAITRSGGSTYADSVKGRFTLSRDNAKNTVYLQMNSLKPEETAVYYCNADGYFWGQGTQVTVSS	low polyreactivity
QVQLVESGGGLVQAGGSLRLSCAASGNIFDGYAMGWYRQAPGKERELVAAISLSGGSTNYADSVKGRFTISRDNAKNTVYLQMNSLKPEDTAVYYCNARNWYYEGDYWGQGTQVTVSS	high polyreactivity
QVQLVESGGGLVQAGGSLRLSCAASGRIFQYYAMGWYRQAPGKERELVASISGRGGRTYYADSVKGRFTISRDNAKNTVYLQMNSLKPEDTAVYYCNAVFSTIRYIRSYNYWGQGTQVTVSS	high polyreactivity
QVQLVESGGGLVEAGGSHRLSCAASGSTFNYYAMGWYRQAPGKERELVASISGGGSTSYADSVKGRFTISRDHAKNTVYLQMNSLNPEHTAVYYCAATPIGQHFPLDYWGPGTQVTVSS	low polyreactivity
QVQLVESGGGLVQAGGSLRLSCAASGSIFTPYAMGWYRQAPGTEREFVAVISWRVDSTYYADSVKGRFTISRDNAKNTVYLQMNSLKPEDTAVYYCAAKSYLLAPFGSGNRWSRYDYWGQGTQVTVSS	high polyreactivity
QVQLVESAGGLVQAGGSLRLSCAASGSIIYYNAMGWYRQAPGKERELVAAITGSGGSTYYADSVKGRFTISRDNAKNTVYLQMNSLKPEDTAVYYCAADYSLYGWWFRNDYWGQGTQVTVSS	low polyreactivity
QVQLVESGGGLVQAGGSLRLSCAASGLIFFQNAMGWYRQAPGKERELVAAITWSGGRTYYADSVKGRFTISRDNAKNTVYLQMKSLKPEDTEVYYCAADYDYPDYYAPSWPGYNYWGQGTQVTVSS	low polyreactivity
QVQLVESGGVLVQARVSLRLSCAASGLTIYYYAMGWYRQAPGQERELVAAITWRGGSTYYADSVKGRFTISRDNEKNTVYLQMISLKPEVTAVYYCAADPGPYGYYYWGLGTQVTVSS	low polyreactivity
QVQLVESGGGLVQAGGSLRLSCAASGRIFYGYAIGWYRQAPGKEREFVARINVSGTSTFYADSVKGRFTISRDNAKNTVYLQMTSLKPEDTAVYDCAARGLPSNDYYYVHGYIMDYWGQGTQVTVSS	low polyreactivity
QVQLVESGGGLVQAGGSLRLSCAASGRTFRGNAMGWNRQTHGKERELVAAISWSGGRTYYADSVKGRFTISRDNAKNSVYLQMNSLKPEDTAVYDCAAVVPKYGQAGYDYWGQGTQVSVSS	high polyreactivity
QVQHVESGGGLVQAGGSLRLSCAASGNIFTRNPMGWYRQAPGKERELVAAINYSGGSTYYADSVKGRFTISRDNAKNTVYLQMNSLKPEDTAVYYCAKDYAPSTDSYDYWGQGTQVTVSS	low polyreactivity
QVQLVKSGGGLVQAGGSLRLSCAASGSTFYNAMGWYRQAPGKERELVAAISIGGSTYYADSVKGRFTISRDNAKNTVYLQMNSLKPEDTAVYYCAAVWYTSRQKYDYWGQGTQVTVSS	low polyreactivity
QVQLVESGGGLVQAGGSLRLSSAASGINLEYYAMGWSRQAPGKERELVAAIDSTDGSTYYADSVKGRFTISRDNAKNTVYLQLNSLKPEDTAVYYWNVVVSWPLSLLRRDYWGQGTQVTVSS	low polyreactivity
